# According to patent publication US20230391845A1, “GLP-1, GIP AND GLUCAGON RECEPTOR TRIPLE AGONISTS” (priority 2020, published 2023):
# Where no end group is shown, it is not given here. [ ]: non-standard residue; d: D form. Aib = CC(C)(N)C(=O)O
# T1: human glucose-dependent insulinotropic polypeptide receptor (human, UniProt P48546 22-466)
# T1 sequence (looked up): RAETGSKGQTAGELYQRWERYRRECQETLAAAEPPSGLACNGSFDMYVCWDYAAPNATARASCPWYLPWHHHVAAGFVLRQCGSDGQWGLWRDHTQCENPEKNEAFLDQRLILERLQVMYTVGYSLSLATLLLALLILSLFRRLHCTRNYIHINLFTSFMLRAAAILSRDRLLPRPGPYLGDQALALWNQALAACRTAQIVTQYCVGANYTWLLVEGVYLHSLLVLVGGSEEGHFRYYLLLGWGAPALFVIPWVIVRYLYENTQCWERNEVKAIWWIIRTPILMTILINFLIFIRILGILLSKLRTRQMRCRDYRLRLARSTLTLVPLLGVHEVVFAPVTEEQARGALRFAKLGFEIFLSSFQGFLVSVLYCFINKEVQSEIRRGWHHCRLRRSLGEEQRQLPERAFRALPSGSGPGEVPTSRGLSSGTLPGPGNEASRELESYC
# B1: Compound No. 19 (peptide)
# peptide: H[Aib]QGTFTSDYSIYLEKQAA[Aib]EFVQWLLEGGPSSGAPPPS-NH2
# modifications: not fully specified (residue 16); printed as H-Aib-QGTFTSDYSIYLE-K[(2S)-2-amino-6-[[(2S)-2-amino-6-[[(4S)-4-carboxy-4-(19-carboxynonadecanoylamino)butanoyl]amino]hexanoyl]amino]hexanoyl]-QAA-Aib-EFVQWLLEGGPSSGAPPPS-NH2
# B2: Compound No. 20 (peptide)
# peptide: Y[Aib]QGTFTSDYSIYLEKQAAQEFVQWLLEGGPSSGAPPPS-NH2
# modifications: not fully specified (residue 16); printed as Y-Aib-QGTFTSDYSIYLE-K[2-[2-[2-[[2-[2-[2-[[(4S)-4-carboxy-4-[[4-[(19-carboxynonadecanoylamino)methyl]cyclohexanecarbonyl]amino]butanoyl]amino]ethoxy]ethoxy]acetyl]amino]ethoxy]ethoxy]acetyl]-QAAQEFVQWLLEGGPSSGAPPPS-NH2
# B3: Compound No. 22 (peptide)
# peptide: H[Aib]HGTFTSDYSIYLEKQAA[Aib]EFVQWLLEGGPSSGAPPPS-NH2
# modifications: not fully specified (residue 16); printed as H-Aib-HGTFTSDYSIYLE-K[(2S)-2-amino-6-[[(2S)-2-amino-6-[[(4S)-4-carboxy-4-(19-carboxynonadecanoylamino)butanoyl]amino]hexanoyl]amino]hexanoyl]-QAA-Aib-EFVQWLLEGGPSSGAPPPS-NH2
# B4: Compound No. 23 (peptide)
# peptide: H[Aib]HGTFTSDYSIYLEKQAAQEFVQWLLEGGPSSGAPPPS-NH2
# modifications: not fully specified (residue 16); printed as H-Aib-HGTFTSDYSIYLE-K[(2S)-2-amino-6-[[(2S)-2-amino-6-[[(4S)-4-carboxy-4-[[4-[(19-carboxynonadecanoylamino)methyl]cyclohexanecarbonyl]amino]butanoyl]amino]hexanoyl]amino]hexanoyl]-QAAQEFVQWLLEGGPSSGAPPPS-NH2
# B5: Compound No. 24 (peptide)
# peptide: H[Aib]HGTFTSDYSIYLEKQYA[Aib]EFVQWLLEGGPSSGAPPPS-NH2
# modifications: not fully specified (residue 16); printed as H-Aib-HGTFTSDYSIYLE-K[(2S)-2-amino-6-[[(2S)-2-amino-6-[[(4S)-4-carboxy-4-(19-carboxynonadecanoylamino)butanoyl]amino]hexanoyl]amino]hexanoyl]-QYA-Aib-EFVQWLLEGGPSSGAPPPS-NH2
# B6: Compound No. 25 (peptide)
# peptide: H[Aib]HGTFTSDYSYYLEKQAA[Aib]EFVQWLLEGGPSSGAPPPS-NH2
# modifications: not fully specified (residue 16); printed as H-Aib-HGTFTSDYSYYLE-K[(2S)-2-amino-6-[[(2S)-2-amino-6-[[(4S)-4-carboxy-4-[[4-[(19-carboxynonadecanoylamino)methyl]cyclohexanecarbonyl]amino]butanoyl]amino]hexanoyl]amino]hexanoyl]-QAA-Aib-EFVQWLLEGGPSSGAPPPS-NH2
# B7: Compound No. 26 (peptide)
# peptide: H[Aib]HGTFTSDYSYYLEKQAA[Aib]EFVQWLLEGGPSSGAPPPS-NH2
# modifications: not fully specified (residue 16); printed as H-Aib-HGTFTSDYSYYLE-K[(2S)-2-amino-6-[[(2S)-2-amino-6-[[(4S)-4-carboxy-4-(19-carboxynonadecanoylamino)butanoyl]amino]hexanoyl]amino]hexanoyl]-QAA-Aib-EFVQWLLEGGPSSGAPPPS-NH2
# B8: Compound No. 27 (peptide)
# peptide: H[Aib]HGTFTSDYSIYLEKQAAEEFVQWLLEGGPSSGAPPPS-NH2
# modifications: not fully specified (residue 16); printed as H-Aib-HGTFTSDYSIYLE-K[(2S)-2-amino-6-[[(2S)-2-amino-6-[[(4S)-4-carboxy-4-(19-carboxynonadecanoylamino)butanoyl]amino]hexanoyl]amino]hexanoyl]-QAAEEFVQWLLEGGPSSGAPPPS-NH2
# B9: Compound No. 28 (peptide)
# peptide: H[Aib]HGTFTSDYSIYLDKQAA[Aib]EFVQWLLEGGPSSGAPPPS-NH2
# modifications: not fully specified (residue 16); printed as H-Aib-HGTFTSDYSIYLD-K[(2S)-2-amino-6-[[(2S)-2-amino-6-[[(4S)-4-carboxy-4-(19-carboxynonadecanoylamino)butanoyl]amino]hexanoyl]amino]hexanoyl]-QAA-Aib-EFVQWLLEGGPSSGAPPPS-NH2
# B10: Compound No. 29 (peptide)
# peptide: H[Aib]HGTFTSDYSYYLEKQYA[Aib]EFVQWLLEGGPSSGAPPPS-NH2
# modifications: not fully specified (residue 16); printed as H-Aib-HGTFTSDYSYYLE-K[(2S)-2-amino-6-[[(2S)-2-amino-6-[[(4S)-4-carboxy-4-(19-carboxynonadecanoylamino)butanoyl]amino]hexanoyl]amino]hexanoyl]-QYA-Aib-EFVQWLLEGGPSSGAPPPS-NH2
# B11: Compound No. 31 (peptide)
# peptide: H[Aib]HGTFTSDYSYYLEKKAA[Aib]EFVQWLLEGGPSSGAPPPS-NH2
# modifications: not fully specified (residue 16); printed as H-Aib-HGTFTSDYSYYLE-K[(2S)-2-amino-6-[[(2S)-2-amino-6-[[(4S)-4-carboxy-4-(19-carboxynonadecanoylamino)butanoyl]amino]hexanoyl]amino]hexanoyl]-KAA-Aib-EFVQWLLEGGPSSGAPPPS-NH2
# B12: Compound No. 32 (peptide)
# peptide: H[Aib]HGTFTSDYSYYLEKQAA[Aib]EFVQWLLEGGPSSGAPPPS-NH2
# modifications: not fully specified (residue 16); printed as H-Aib-HGTFTSDYSYYLE-K[(2S)-2-amino-6-[[(2S)-2-amino-6-[[(4S)-4-carboxy-4-(17-carboxyheptadecanoylamino)butanoyl]amino]hexanoyl]amino]hexanoyl]-QAA-Aib-EFVQWLLEGGPSSGAPPPS-NH2
# B13: Compound No. 34 (peptide)
# peptide: H[Aib]HGTFTSDYSIYLEKKAA[Aib]EFVQWLLEGGPSSGAPPPS-NH2
# modifications: not fully specified (residue 16); printed as H-Aib-HGTFTSDYSIYLE-K[2-[2-[2-[[2-[2-[2-[[(4S)-4-carboxy-4-(19-carboxynonadecanoylamino)butanoyl]amino]ethoxy]ethoxy]acetyl]amino]ethoxy]ethoxy]acetyl]-KAA-Aib-EFVQWLLEGGPSSGAPPPS-NH2
# B14: Compound No. 35 (peptide)
# peptide: H[Aib]HGTFTSDYSIYLEKQKA[Aib]EFVQWLLEGGPSSGAPPPS-NH2
# modifications: not fully specified (residue 16); printed as H-Aib-HGTFTSDYSIYLE-K[(2S)-2-amino-6-[[(2S)-2-amino-6-[[(4S)-4-carboxy-4-(19-carboxynonadecanoylamino)butanoyl]amino]hexanoyl]amino]hexanoyl]-QKA-Aib-EFVQWLLEGGPSSGAPPPS-NH2
# B15: Compound No. 36 (peptide)
# peptide: H[Aib]HGTFTSDYSKYLEKQAA[Aib]EFVQWLLEGGPSSGAPPPS-NH2
# modifications: not fully specified (residue 16); printed as H-Aib-HGTFTSDYSKYLE-K[(2S)-2-amino-6-[[(2S)-2-amino-6-[[(4S)-4-carboxy-4-(19-carboxynonadecanoylamino)butanoyl]amino]hexanoyl]amino]hexanoyl]-QAA-Aib-EFVQWLLEGGPSSGAPPPS-NH2
# Target: human glucagon-like peptide 1 receptor (human, UniProt P43220 24-463)
# Assay: cell-based or functional assay
row,Binder,hGLP-1R CRE Luc EC50 (pM)
1,B1,1.7 pM
2,B2,5.1 pM
3,B3,2 pM
4,B4,2 pM
5,B5,6.8 pM
6,B6,4.6 pM
7,B7,3.1 pM
8,B8,0.8 pM
9,B9,4.5 pM
10,B10,5.8 pM
11,B11,3 pM
12,B12,1.6 pM
13,B13,2.6 pM
14,B14,5.2 pM
15,B15,1.8 pM

# Target: human glucagon receptor (human, UniProt P47871 26-477)
# Assay: cell-based or functional assay
# Sequence of human glucagon receptor (P47871 26-477): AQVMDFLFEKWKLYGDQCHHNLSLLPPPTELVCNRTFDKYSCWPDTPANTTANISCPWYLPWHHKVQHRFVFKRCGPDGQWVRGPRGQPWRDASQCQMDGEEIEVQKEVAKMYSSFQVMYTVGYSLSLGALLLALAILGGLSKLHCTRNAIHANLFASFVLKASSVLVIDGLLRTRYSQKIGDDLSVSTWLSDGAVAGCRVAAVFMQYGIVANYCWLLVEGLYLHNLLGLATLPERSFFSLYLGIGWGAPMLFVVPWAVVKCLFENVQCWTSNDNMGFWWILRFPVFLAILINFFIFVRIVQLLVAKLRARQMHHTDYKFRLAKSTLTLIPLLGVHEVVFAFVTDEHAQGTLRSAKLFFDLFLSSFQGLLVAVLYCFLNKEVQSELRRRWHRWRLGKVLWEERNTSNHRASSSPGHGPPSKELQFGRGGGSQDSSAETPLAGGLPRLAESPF
row,Binder,hGcgR CRE Luc EC50 (pM)
1,B1,357 pM
2,B2,147 pM
3,B3,48.7 pM
4,B4,18.3 pM
5,B5,13.1 pM
6,B6,25.2 pM
7,B7,13.6 pM
8,B8,55 pM
9,B9,16.7 pM
10,B10,9.6 pM
11,B11,7.7 pM
12,B12,10.3 pM
13,B13,24.7 pM
14,B14,5 pM
15,B15,11.4 pM

# Target: T1, human glucose-dependent insulinotropic …
# Assay: cell-based or functional assay
row,Binder,hGIPR CRE Luc EC50 (pM)
1,B1,55 pM
2,B2,8.1 pM
3,B3,7.1 pM
4,B4,5.1 pM
5,B5,7.7 pM
6,B6,6.9 pM
7,B7,6.5 pM
8,B8,2.5 pM
9,B9,7.7 pM
10,B10,7.2 pM
11,B11,9 pM
12,B12,3.5 pM
13,B13,8.7 pM
14,B14,13.9 pM
15,B15,9.3 pM
